Measurements taken from US20240018269A1.

Key:
[1] = molecular target: recombinant soluble FcγRIIb (human) (UniProt P31994); experiment: BLI (Octet); anti-TNP IgG captured on TNP-BSA-biotin, rsFcγR in solution; global 1:1 Langmuir fit
[2] = molecular target: human FcγRIIb expressed on the cell surface (human) (UniProt P31994); experiment: cell-based or functional assay
[3] = molecular target: recombinant soluble FcγRIIa-Arg131 (human) (UniProt P12318); experiment: BLI (Octet); anti-TNP IgG captured on TNP-BSA-biotin, rsFcγR in solution; global 1:1 Langmuir fit
recombinant soluble FcγRIIa-Arg131 (human), sequence (P12318 34-217 H167R): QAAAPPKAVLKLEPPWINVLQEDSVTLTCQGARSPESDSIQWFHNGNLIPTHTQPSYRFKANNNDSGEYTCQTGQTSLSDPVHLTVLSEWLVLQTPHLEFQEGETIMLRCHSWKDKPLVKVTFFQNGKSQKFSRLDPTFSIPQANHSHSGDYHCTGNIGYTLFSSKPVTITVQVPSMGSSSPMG

human FcγRIIb expressed on the cell surface (human), sequence (P31994 43-310): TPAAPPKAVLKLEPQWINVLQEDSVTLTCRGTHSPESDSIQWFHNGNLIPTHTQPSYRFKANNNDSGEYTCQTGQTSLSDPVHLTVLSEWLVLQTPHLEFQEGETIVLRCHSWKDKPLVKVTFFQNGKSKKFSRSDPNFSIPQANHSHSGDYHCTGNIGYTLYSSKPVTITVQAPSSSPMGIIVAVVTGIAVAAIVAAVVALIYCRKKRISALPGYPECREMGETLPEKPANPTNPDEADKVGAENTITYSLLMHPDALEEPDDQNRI
recombinant soluble FcγRIIb (human), sequence (P31994 43-217): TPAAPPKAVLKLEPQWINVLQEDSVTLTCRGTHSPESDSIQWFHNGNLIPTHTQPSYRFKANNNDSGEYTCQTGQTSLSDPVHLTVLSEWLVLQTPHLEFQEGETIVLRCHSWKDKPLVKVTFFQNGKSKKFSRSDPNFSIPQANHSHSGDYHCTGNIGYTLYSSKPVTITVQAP

Row | Ka [1] [M⁻¹] | % inhibition of basophil activation (washed blood BAT) [2] [%] | % inhibition of basophil activation (whole blood BAT) [2] [%] | Ka [3] [M⁻¹] | Substance
1 | 400000 |  |  |  | chimeric anti-TNP human IgG2-FEGG (antibody)
2 |  | 42 | 8 |  | chimeric anti-TNP human IgG4-FEGG (antibody)
3 |  |  | 13 |  | chimeric anti-TNP human IgG4-LLGG (antibody)
4 | 7.4e+07 |  |  | 3.49e+08 | chimeric anti-TNP human IgG1-SELF (antibody)
